From article PMC12768534 (Science immunology, 2025)

Target: mIL-21 (mouse, UniProt Q9ES17 18-146)
Test: BLI; mIL-21 and 21h10 incubated in PBS or murine serum for 1-240 minutes at 37°C, then binding to mIL-21R
Details: both partners purified

B1: biotinylated mIL-21R (receptor)
chain: not shown
modifications: biotin (biotinylated)
notes: murine IL-21 receptor, biotinylated recombinant protein; Held on streptavidin biosensors by its biotin; limits and tags are the vendor's; also called murine IL-21 receptor; source: bought: Acro Biosystems Cat# ILR-M82E3
  binding result: binds
